# In the supplement of paper PMC7877785:
# ± gives the uncertainty stated by the source.
# Experiment: self-splicing fitness, log relative to wild type (ln ratio); higher = more splicing; Tetrahymena group I intron in knt gene, E. coli kanamycin selection, DiMSum; sequences stand for … in CUCUCU…GGAGGGAAAAGUUAUCAGGCAUGCACCUGGUAGCUAGUCUUUAAACCAAUAGAUUGCAUCGGUUUAAAAGGCAAGACCGUCAAAUUGCGGGAAAGGGGUCAACAGCCGUUCAGUACCAAGUCUCAGGGGAAACUUUGAGAUGGCCUUGCAAAGGGUAUGGUAAUAAGCUGACGGACAUGGUCCUAACCACGCAGCCAAGUCCUAAGUCAACAGAUCUUCUGUUGAUAUGGAUGCAGUUCACAGACUAAAUGUCGGUCGGGGAAGAUGUAUUCUUCUCAUAAGAUAUAGUCGGACCUCUCCUUAAUGGGAGCUAGCGGAUGAAGUGAUGCAACACUGGAGCCGCUGGGAACUAAUUUGUAUGCGAAAGUAUAUUGAUUAGUUUUGGAGUACUCGUGGUCG
# Method in brief: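 A randomised library covering all eight P1ex-region intron nucleotides was built with the intron in the knt kanamycin-resistance gene on pET-22b(+) and held in E. coli BL21(DE3). Cells were grown overnight at 37°C or 30°C on LB agar, with or without 25 μg/mL kanamycin, plus 100 μg/mL carbenicillin, 50 μM IPTG and 0.2% rhamnose, and pooled colonies were amplicon-sequenced on an Illumina HiSeq 2500. DiMSum fitness is the error-weighted combination of wild-type-normalised replicate fold changes, kanamycin versus none.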
Sequence,self-splicing fitness (ln) (30 °C),self-splicing fitness (ln) (37 °C)
AAUCAGCAAUAUUACGGGCC,-3.19 ± 0.44,-2.58 ± 0.28
CAUCAGCAAUAUUACGAUAU,-1.76 ± 0.073,-0.599 ± 0.085
CGGCAGCAAUAUUACGUUGA,-2.63 ± 0.19,-1.8 ± 0.16
CUAGAGCAAUAUUACGCAAA,-2.62 ± 0.27,-1.27 ± 0.4
GAUGAGCAAUAUUACGGCUU,-2.34 ± 0.14,-1.12 ± 0.14
GAAUAGCAAUAUUACGAGUU,-2.2 ± 0.084,-0.978 ± 0.093
GGGGAGCAAUAUUACGUUCG,-2.01 ± 0.18,-0.941 ± 0.16
AGUCAGCAAUAUUACGACAC,-0.0897 ± 0.065,-0.358 ± 0.084
GGAUAGCAAUAUUACGUAUA,-2.53 ± 0.2,-0.564 ± 0.15
CUAAAGCAAUAUUACGCAGC,-3.5 ± 0.33,-2.3 ± 0.44
CGUCAGCAAUAUUACGGCCA,-0.937 ± 0.083,0.106 ± 0.097
GGAUAGCAAUAUUACGCGUA,-0.646 ± 0.21,-2.02 ± 0.18
ACCAAGCAAUAUUACGACCG,-1.17 ± 0.096,-0.119 ± 0.12
GGUUAGCAAUAUUACGUCCC,–,-2.36 ± 0.34
GAACAGCAAUAUUACGGGGA,-1.6 ± 0.087,-0.774 ± 0.09
UUGGAGCAAUAUUACGGAAA,-3.48 ± 0.47,-1.64 ± 0.24
GGGUAGCAAUAUUACGCCAU,-2.4 ± 0.26,-1.32 ± 0.19
ACAUAGCAAUAUUACGUUCU,-1.19 ± 0.11,-0.553 ± 0.12
UUAGAGCAAUAUUACGCAGG,-2.7 ± 0.2,-0.784 ± 0.16
GGUUAGCAAUAUUACGGGUC,-2.03 ± 0.24,-0.805 ± 0.18
AAUAAGCAAUAUUACGGCGU,0.428 ± 0.082,0.242 ± 0.1
CCCGAGCAAUAUUACGUCGG,-3.02 ± 0.25,-2.41 ± 0.32
AAACAGCAAUAUUACGGGAG,-3.34 ± 0.13,-2.66 ± 0.14
CGCGAGCAAUAUUACGGGAG,-3.66 ± 0.19,-2.91 ± 0.22
UAGAAGCAAUAUUACGAUGC,-1.9 ± 0.24,-0.852 ± 0.2

Sequence,self-splicing fitness (ln) (30 °C),self-splicing fitness (ln) (37 °C)
GUAGAGCAAUAUUACGGACG,-2.8 ± 0.36,-1 ± 0.3
CACUAGCAAUAUUACGUACU,-2.87 ± 0.16,-2.81 ± 0.19
CCGGAGCAAUAUUACGGAUA,-2.42 ± 0.2,-1.18 ± 0.23
UUGCAGCAAUAUUACGAGCC,–,-2.7 ± 0.31
CCGCAGCAAUAUUACGAAUC,-1.78 ± 0.17,–
UGGCAGCAAUAUUACGGGGU,-3.97 ± 0.13,-2.62 ± 0.14
ACCCAGCAAUAUUACGGUUC,-2.22 ± 0.072,-1.32 ± 0.094
ACCUAGCAAUAUUACGCCUU,-1.43 ± 0.098,0.204 ± 0.12
ACGCAGCAAUAUUACGCGCA,-0.215 ± 0.096,0.231 ± 0.11
CCCGAGCAAUAUUACGUUAC,-3.01 ± 0.35,-2.37 ± 0.32
GUAGAGCAAUAUUACGACUC,0.512 ± 0.23,0.484 ± 0.38
UGCAAGCAAUAUUACGAAGU,-3 ± 0.49,–
GACCAGCAAUAUUACGGCCG,-0.246 ± 0.063,0.158 ± 0.093
UGUAAGCAAUAUUACGAUAC,-2.7 ± 0.28,-2.07 ± 0.26
UUAAAGCAAUAUUACGAGGC,-3.94 ± 0.37,-2.36 ± 0.29
CGUCAGCAAUAUUACGAGAC,-2.95 ± 0.38,-1.9 ± 0.32
AUACAGCAAUAUUACGGGCU,-2.77 ± 0.11,-1.29 ± 0.12
CGAUAGCAAUAUUACGACCC,-2.33 ± 0.44,–
UAUUAGCAAUAUUACGUGGA,-2.75 ± 0.32,-0.0772 ± 0.19
UUACAGCAAUAUUACGCUGC,-2.9 ± 0.35,–
GUUGAGCAAUAUUACGCCCU,-1 ± 0.19,0.108 ± 0.25
UAGAAGCAAUAUUACGUUCU,-1.61 ± 0.11,-1.08 ± 0.11
CGUCAGCAAUAUUACGCACC,-1.51 ± 0.1,-0.192 ± 0.13
UAAUAGCAAUAUUACGUUCU,-2.47 ± 0.29,-1.9 ± 0.32
